The target in experiment [1] is human IL-18 receptor beta extracellular domain (residues 15-356), C-terminal 6xHis, wild type, from silkworm (human) (UniProt O95256). Briefly: SPR; BIAcore 3000, 25 °C; C-terminal 6xHis IL-18Rβ (wild type or mutant) immobilised at about 100 RU on a Ni-NTA sensor chip; un-tagged IL-18Rα saturated with 500 nM IL-18 (preformed binary complex) injected as analyte in HBS-P; triplicate. Background: SPR reads the build-up and loss of mass on a sensor chip optically.

Experiment [2] has as its target human IL-18 receptor alpha extracellular domain (residues 20-329), C-terminal 6xHis, wild type, from silkworm (human) (UniProt Q13478). The experiment is described as follows: SPR; BIAcore 3000, 25 °C; C-terminal 6xHis IL-18Rα (wild type or mutant) immobilised at about 200 RU on a Ni-NTA sensor chip; IL-18 (wild type or mutant) injected as analyte in HBS-P (10 mM HEPES-Na pH 7.4, 150 mM NaCl, 0.01% P-20), 30 µl/min, 180 s association, 360 s dissociation; triplicate.

Experiment [3] addresses T1, preformed binary complex of IL-18 wild type and un-tagged IL-18Rα wild type extracellular domain (human, UniProt Q14116 37-193; Q13478 20-329).
T1 construct: interleukin-18, human, mature IL-18 (residues 1-157); numbers count on: the mature protein; IL-18 receptor alpha, human, extracellular domains, residues 20-329 of NM_003855; also called IL-18 WT/IL-18Rα WT complex; IL-18/IL-18Rα; source: IL-18: E. coli BL21(DE3), purified; IL-18Rα: silkworm larvae haemolymph, purified; un-tagged IL-18Rα saturated with 500 nM IL-18
The experiment is described as follows: SPR; BIAcore 3000, 25 °C; C-terminal 6xHis IL-18Rβ (wild type or mutant) immobilised at about 100 RU on a Ni-NTA sensor chip; un-tagged IL-18Rα saturated with 500 nM IL-18 (preformed binary complex) injected as analyte in HBS-P; triplicate. The following applies: both partners purified.

Numbering of substitutions follows the chain as printed. Names and notes keep the numbering of the source.

Chain of human IL-18 receptor alpha extracellular domain (residues 20-329), C-terminal 6xHis, wild type, from silkworm (human) (Q13478 20-329): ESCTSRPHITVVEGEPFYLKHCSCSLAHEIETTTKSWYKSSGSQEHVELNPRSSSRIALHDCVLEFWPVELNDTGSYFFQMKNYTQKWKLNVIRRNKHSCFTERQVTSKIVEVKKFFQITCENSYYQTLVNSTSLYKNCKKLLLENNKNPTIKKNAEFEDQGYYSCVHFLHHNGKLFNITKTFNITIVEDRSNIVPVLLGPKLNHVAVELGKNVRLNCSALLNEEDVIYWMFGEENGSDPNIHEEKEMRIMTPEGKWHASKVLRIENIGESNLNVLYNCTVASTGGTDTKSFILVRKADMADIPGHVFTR

“preformed binary complex of IL-18 R147A and un-tagged IL-18Rα wild type extracellular domain (from UniProt Q13478 20-329)” yielded a kon in experiment [1] of 69000 M⁻¹ s⁻¹. Regarding “human interleukin-18, mature, K112A (ligand)”, in experiment [2], the dissociation constant (Kd) amounted to 51 nM and the kon is 64000 M⁻¹ s⁻¹. “preformed binary complex of IL-18 K79A and un-tagged IL-18Rα wild type extracellular domain (from UniProt Q13478 20-329)”: in experiment [1], the Kd was 13 nM and the kon was determined as 13000 M⁻¹ s⁻¹.

For “human interleukin-18, mature, R147A (ligand)”, in experiment [2], the Kd came to 67 nM and the kon was found to be 68000 M⁻¹ s⁻¹. The corresponding values for “human interleukin-18, mature, M150A (ligand)” are 59 nM and 57000 M⁻¹ s⁻¹.

Consider “human interleukin-18, mature, G145A (ligand)”, for which, in experiment [2], the Kd stood at 57 nM and the kon was determined as 59000 M⁻¹ s⁻¹. For “human interleukin-18, mature, D110A (ligand)” the same measures were 23 nM and 106000 M⁻¹ s⁻¹. The corresponding values for “human interleukin-18, mature, H109A (ligand)” are 48 nM and 62000 M⁻¹ s⁻¹. In experiment [1], “preformed binary complex of IL-18 K84A and un-tagged IL-18Rα wild type extracellular domain (from UniProt Q13478 20-329)” registered a Kd of 18 nM and a kon of 10000 M⁻¹ s⁻¹. Take “human interleukin-18, mature, G108A (ligand)”: in experiment [2], the Kd came out at 184 nM and the kon stood at 52000 M⁻¹ s⁻¹. The corresponding values for “human interleukin-18, mature, K79A (ligand)” are 55 nM and 76000 M⁻¹ s⁻¹.

B1: human IL-18 receptor beta extracellular domain (residues 15-356), C-terminal 6xHis, E210A (receptor, UniProt O95256-1 15-356, looked up)
chain: ERIKGFNISGCSTKKLLWTYSTRSEEEFVLFCDLPEPQKSHFCHRNRLSPKQVPEHLPFMGSNDLSDVQWYQQPSNGDPLEDIRKSYPHIIQDKCTLHFLTPGVNNSGSYICRPKMIKSPYDVACCVKMILEVKPQTNASCEYSASHKQDLLLGSTGSISCPSLSCQSDAQSPAVTWYKNGKLLSVERSNRIVVDAVYDYHQGTYVCDYTQSDTVSSWTVRAVVQVRTIVGDTKLKPDILDPVEDTLEVELGKPLTISCKARFGFERVFNPVIKWYIKDSDLEWEVSVPEAKSIKSTLKDEIIERNIILEKVTQRDLRRKFVCFVQNSIGNTTQSVQLKEKR
notes: IL-18 receptor beta, human, extracellular domains, residues 15-356 of NM_003853; also called IL-18Rβ E210A; source: silkworm (B. mori) larvae, BmNPV bacmid, haemolymph, purified (ion exchange, Ni-NTA, gel filtration); not shown: 6xHis, C-terminal, kept
B1 had a kon in experiment [3] of 71000 M⁻¹ s⁻¹.

B2: human IL-18 receptor beta extracellular domain (residues 15-356), C-terminal 6xHis, S169A-T170A (receptor, UniProt O95256-1 15-356, looked up)
chain: B1 chain with S155A, T156A, A196E
notes: IL-18 receptor beta, human, extracellular domains, residues 15-356 of NM_003853; also called IL-18RβS169A-T170A; source: silkworm (B. mori) larvae, BmNPV bacmid, haemolymph, purified (ion exchange, Ni-NTA, gel filtration); not shown: 6xHis, C-terminal, kept
With B2, in experiment [3], binding was characterised by a dissociation constant (Kd) of 77 nM and the kon was found to be 68000 M⁻¹ s⁻¹.

B3: human IL-18 receptor beta extracellular domain (residues 15-356), C-terminal 6xHis, Y214A (receptor, UniProt O95256-1 15-356, looked up)
chain: B1 chain with A196E, Y200A
notes: IL-18 receptor beta, human, extracellular domains, residues 15-356 of NM_003853; also called IL-18Rβ Y214A; source: silkworm (B. mori) larvae, BmNPV bacmid, haemolymph, purified (ion exchange, Ni-NTA, gel filtration); not shown: 6xHis, C-terminal, kept
In experiment [3], B3 registered a kon of 97000 M⁻¹ s⁻¹.

B4: human IL-18 receptor beta extracellular domain (residues 15-356), C-terminal 6xHis, L167A (receptor, UniProt O95256-1 15-356, looked up)
chain: B1 chain with L153A, A196E
notes: IL-18 receptor beta, human, extracellular domains, residues 15-356 of NM_003853; also called IL-18Rβ L167A; source: silkworm (B. mori) larvae, BmNPV bacmid, haemolymph, purified (ion exchange, Ni-NTA, gel filtration); not shown: 6xHis, C-terminal, kept
Consider B4, for which the kon in experiment [3] is 76000 M⁻¹ s⁻¹.

B5: human IL-18 receptor beta extracellular domain (residues 15-356), C-terminal 6xHis, K313A (receptor, UniProt O95256-1 15-356, looked up)
chain: B1 chain with A196E, K299A
notes: IL-18 receptor beta, human, extracellular domains, residues 15-356 of NM_003853; also called IL-18Rβ K313A; source: silkworm (B. mori) larvae, BmNPV bacmid, haemolymph, purified (ion exchange, Ni-NTA, gel filtration); not shown: 6xHis, C-terminal, kept
With B5, the kon in experiment [3] turned out to be 103000 M⁻¹ s⁻¹.

The kon is the rate constant with which the complex forms. A high value points to fast association. Broadly, the Kd is the free concentration of one partner at which half of the binding sites on the other are occupied at equilibrium, for simple one-to-one binding. Read a high Kd as weaker binding.

(Values after paper PMC4275594 (Nature Communications, 2014).)
